Results from patent US11649460B2, “DNA aptamers, method for inhibiting human galectin-1 and method of treating a mammal in need thereof” (priority 2020, dated 2023).

How the values were obtained:
[1] = test system: SK-BR-3 human breast adenocarcinoma; assay: SRB cell proliferation (cytotoxicity) assay, SK-BR-3
Description: (§1) The XLSTAT software was used to determine the IC50, TGI and LC50 values using the four-parameter logistic curve equation.

[2] = test system: NHF human foreskin skin fibroblasts; assay: in vitro
Description: as §1

[3] = test system: OVCAR-3 human ovarian adenocarcinoma cell line; assay: SRB cell proliferation (cytotoxicity) assay, OVCAR-3
Description: as §1

[4] = test system: MCF-7 human breast adenocarcinoma cell line; assay: SRB cell proliferation (cytotoxicity) assay, MCF-7
Description: as §1

[5] = biological target: T1, native human galectin-1 (hGal1) (Homo sapiens, UniProt P09382); assay: Thermofluor thermal shift assay (TSA), native galectin-1; assay type: binding; settings: 5 μM protein
T1 construct: 42; made in house; host or cells: E. coli strain M-15
T1 sequence (P09382 2-135): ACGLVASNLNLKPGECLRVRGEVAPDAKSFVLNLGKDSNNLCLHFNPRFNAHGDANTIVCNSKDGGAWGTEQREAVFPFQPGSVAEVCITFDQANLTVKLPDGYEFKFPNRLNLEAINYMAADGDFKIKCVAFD
Method: In an attempt to screen among the selected aptamers that better interact with hGal1, differential scanning fluorimetry (Termofluor) was used to characterize their binding to its target. Among all the selected aptamers, SEQ ID NO.: 4 seemed to have a more intense effect on hGal1 thermoshift and so was chosen for further analysis. The selected aptamer had its interaction evaluated with native and alkylated galectin-1. […] The respective thermal displacements were evaluated as a function of an increasing concentration of SEQ ID NO.: 4 (FIG. 1).
Thermofluor experiments were performed on an Mx3005 RT-PCR (Agilent Technologies) using the SYPRO® Orange dye (492/610 nm) (Invitrogen) as fluorescent probe. The purified (native and alkylated) protein samples were incubated for 30 min with increasing concentration of the molecules of interest, centrifuged, and submitted to the thermal denaturation assay, totalizing four distinct experiments. In a 96-well plate (Agilent Technologies) 20 μl of the reaction containing 5 μM of each protein in buffer PBS 1× and 5× SYPRO® Orange were heated from 25° C. to 95° C. at a rate of 1° C./min. The experimental result was processed as in the protocol previously described and the melting temperature was obtained using GraphPad Prism software (www.graphpad.com).

[6] = biological target: T2, hGal1-induced hemagglutination of red blood cells (Homo sapiens, UniProt P09382); assay: Hemagglutination inhibition assay, native hGal1; assay type: cell-based; settings: native Gal1 5 μM
T2 construct: 42; made in house; host or cells: E. coli strain M-15
T2 sequence (P09382 2-135): as above
Method: Hemagglutination Inhibition Assay
(§2) Hemagglutination assay was adopted to assess the capacity of SEQ ID NO.: 4 in inhibiting the lectin cross-linking aggregation of red blood cells (RBC), as previously described. Briefly, using a 96-well microplates appropriate amounts of 5 μM hGal1 were blended with 50 μL of aptamer in an increasing concentrations manner (0-40 μM) in PBS 1× buffer (pH 7.4). Following, 50 μL of 3% purified type B+ RBC in PBS. After 2 h of room temperature incubation, the plate was photographed and the hemagglutination area was estimated by area calculator Sketchandcalc™ and the results were expressed as relative agglutination.

[7] = test system: A-375 human malignant melanoma; assay: SRB cell proliferation (cytotoxicity) assay, A-375
Description: as §1

alkylated Gal1 = biological target: T3, alkylated Gal1 (Homo sapiens, UniProt P09382); assay: Hemagglutination inhibition assay, alkylated Gal1; assay type: cell-based; settings: alkylated Gal1 5 μM
T3 construct: 42; made in house; host or cells: E. coli strain M-15
T3 sequence (P09382 2-135): as above
Method: FIG. 15 illustrates the hemagglutination test with constant protein concentration at 5 μM and titration of aptamers SEQ ID NO.: 4 and SEQ ID NO.: 9. (a) Titration with aptamer 4. The hemagglutination of native Gal1 was inhibited from the concentration of 10 μM of this compound.
as §2
It was observed that treating hGal-1 with Iodoacetamide, which covalently binds the acetamide group in all solvent accessible cysteines sulfhydryl side chain, abolishes the anti-hemagglutinating activity of the aptamer. According to the proposed binding mode, this happens because Cysteines 2, 88 and 130 interact directly with the aptamer and adding the acetamide group to their side chains would disrupt specific aptamer-protein interactions (FIG. 13C).

[8] = test system: HCT 116 human colorectal carcinoma; assay: SRB cell proliferation (cytotoxicity) assay, HCT 116
Description: as §1

[9] = test system: DU-145 human prostate carcinoma cell line; assay: SRB cell proliferation (cytotoxicity) assay, DU-145
Description: as §1

[10] = test system: HT-29 human colorectal adenocarcinoma; assay: SRB cell proliferation (cytotoxicity) assay, HT-29
Description: as §1

B1: AGCTGACACAGCAGGTTGGTGCCCAAAAGAGCCAATCCACGACGACACCCCAAAAACCATATCACGAATACCCGAGTCGAGCAATCTCGAAAT (nucleic acid)
DNA: AGCTGACACAGCAGGTTGGTGCCCAAAAGAGCCAATCCACGACGACACCCCAAAAACCATATCACGAATACCCGAGTCGAGCAATCTCGAAAT
modifications: chemistry not given here
[1]; 0.781 µM
  Relative cell viability (%) of test items: 107.5%
[1]; 1.562 µM
  Relative cell viability (%) of test items: 99.9%
[1]; 3.125 µM
  Relative cell viability (%) of test items: 111.1%
[1]; 6.25 µM
  Relative cell viability (%) of test items: 109.1%
[1]; 12.5 µM
  Relative cell viability (%) of test items: 98.5%
[1]; 25 µM
  Relative cell viability (%) of test items: 48.7%
[1]; 50 µM
  Relative cell viability (%) of test items: 3.1%
[1]; 100 µM
  Relative cell viability (%) of test items: −70.0%
[1]; SK-BR-3
  TGI: Concentration for total inhibition of cell growth: 49.017 µM
[1]; read-out: IC50: Concentration to inhibit 50% of cell growth, SK-BR-3
  IC50: 28.3 µM
[1]; read-out: LC50: Concentration for 50% cell death, SK-BR-3
  CC50: 80.7 µM
[2]; 0.781 µM
  Relative viability (%) of test items: 104.0%
[2]; 1.562 µM
  Relative viability (%) of test items: 96.2%
[2]; 3.125 µM
  Relative viability (%) of test items: 95.7%
[2]; 6.25 µM
  Relative viability (%) of test items: 92.7%
[2]; 12.5 µM
  Relative viability (%) of test items: 114.0%
[2]; 25 µM
  Relative viability (%) of test items: 84.6%
[2]; 50 µM
  Relative viability (%) of test items: 44.6%
[2]; 100 µM
  Relative viability (%) of test items: −12.8%
[2]; NHF
  TGI: Concentration for total inhibition of cell growth: 83.697 µM
[2]; read-out: IC50: Concentration to inhibit 50% of cell growth, NHF
  IC50: 46.9 µM
[3]; 0.781 µM
  Relative viability (%) of test items: 105.9%
[3]; 1.562 µM
  Relative viability (%) of test items: 99.6%
[3]; 3.125 µM
  Relative viability (%) of test items: 93.9%
[3]; 6.25 µM
  Relative viability (%) of test items: 84.3%
[3]; 12.5 µM
  Relative viability (%) of test items: 50.2%
[3]; 25 µM
  Relative viability (%) of test items: 23.4%
[3]; 50 µM
  Relative viability (%) of test items: 8.1%
[3]; 100 µM
  Relative viability (%) of test items: −62.0%
[3]; OVCAR-3
  TGI: Concentration for total inhibition of cell growth: 45.952 µM
[3]; read-out: IC50: Concentration to inhibit 50% of cell growth, OVCAR-3
  IC50: 16.1 µM
[3]; read-out: LC50: Concentration for 50% cell death, OVCAR-3
  CC50: 91.4 µM
[4]; 0.781 µM
  Relative viability (%) of test items: 103.8%
[4]; 1.562 µM
  Relative viability (%) of test items: 95.5%
[4]; 3.125 µM
  Relative viability (%) of test items: 97.8%
[4]; 6.25 µM
  Relative viability (%) of test items: 84.8%
[4]; 12.5 µM
  Relative viability (%) of test items: 73.6%
[4]; 25 µM
  Relative viability (%) of test items: 55.1%
[4]; 50 µM
  Relative viability (%) of test items: 37.5%
[4]; 100 µM
  Relative viability (%) of test items: −19.5%
[4]; MCF-7
  TGI: Concentration for total inhibition of cell growth: 80.767 µM
[4]; read-out: IC50: Concentration to inhibit 50% of cell growth, MCF-7
  IC50: 32 µM
[4]; read-out: LC50: Concentration for 50% cell death, MCF-7
  CC50: > 100 µM
[5]
  variation of denaturation temperature (Tm) of native hGal1: greater variation
[6]
  concentration from which hemagglutination was inhibited: 10 µM
  inhibitory effect on galectin-induced hemagglutination: better effect
[7]; 0.781 µM
  Relative cell viability (%) of test items: 121.2%
[7]; 1.562 µM
  Relative cell viability (%) of test items: 107.1%
[7]; 3.125 µM
  Relative cell viability (%) of test items: 107.0%
[7]; 6.25 µM
  Relative cell viability (%) of test items: 114.0%
[7]; 12.5 µM
  Relative cell viability (%) of test items: 97.7%
[7]; 25 µM
  Relative cell viability (%) of test items: 92.5%
[7]; 50 µM
  Relative cell viability (%) of test items: 70.6%
[7]; 100 µM
  Relative cell viability (%) of test items: −19.4%
[7]; A-375
  TGI: Concentration for total inhibition of cell growth: 90.397 µM
[7]; read-out: IC50: Concentration to inhibit 50% of cell growth, A-375
  IC50: 61.1 µM
[7]; read-out: LC50: Concentration for 50% cell death, A-375
  CC50: > 100 µM
Alkylated Gal1
  effect on hemagglutination by alkylated Gal1: no effect
[8]; 0.781 µM
  Relative cell viability (%) of test items: 99.9%
[8]; 1.562 µM
  Relative cell viability (%) of test items: 94.6%
[8]; 3.125 µM
  Relative cell viability (%) of test items: 87.9%
[8]; 6.25 µM
  Relative cell viability (%) of test items: 88.9%
[8]; 12.5 µM
  Relative cell viability (%) of test items: 72.2%
[8]; 25 µM
  Relative cell viability (%) of test items: 33.3%
[8]; 50 µM
  Relative cell viability (%) of test items: 11.5%
[8]; 100 µM
  Relative cell viability (%) of test items: −19.5%
[8]; HCT 116
  TGI: Concentration for total inhibition of cell growth: 58.519 µM
[8]; read-out: IC50: Concentration to inhibit 50% of cell growth, HCT 116
  IC50: 20.1 µM
[9]; 0.781 µM
  Relative viability (%) of test items: 106.1%
[9]; 1.562 µM
  Relative viability (%) of test items: 92.3%
[9]; 3.125 µM
  Relative viability (%) of test items: 106.4%
[9]; 6.25 µM
  Relative viability (%) of test items: 103.6%
[9]; 12.5 µM
  Relative viability (%) of test items: 98.7%
[9]; 25 µM
  Relative viability (%) of test items: 82.5%
[9]; 50 µM
  Relative viability (%) of test items: 68.0%
[9]; 100 µM
  Relative viability (%) of test items: 36.6%
[9]; DU-145
  TGI: Concentration for total inhibition of cell growth: >100 µM
[9]; read-out: IC50: Concentration to inhibit 50% of cell growth, DU-145
  IC50: 74 µM
[10]; 0.781 µM
  Relative cell viability (%) of test items: 92.0%
[10]; 1.562 µM
  Relative cell viability (%) of test items: 95.9%
[10]; 3.125 µM
  Relative cell viability (%) of test items: 97.2%
[10]; 6.25 µM
  Relative cell viability (%) of test items: 92.5%
[10]; 12.5 µM
  Relative cell viability (%) of test items: 83.1%
[10]; 25 µM
  Relative cell viability (%) of test items: 32.7%
[10]; 50 µM
  Relative cell viability (%) of test items: 14.4%
[10]; 100 µM
  Relative cell viability (%) of test items: 0.2%
[10]; read-out: IC50: Concentration to inhibit 50% of cell growth, HT-29
  IC50: 20.4 µM
